B1: MLL5 (parent)
chain: TYLCERCQPRNLDKERAVLLQRRK

We go through 94 variants from the supplement of paper PMC10567573.
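Note: lentivirally expressed fusions sorted by FACS into six bins by GFP to DsRed ratio, PSI derived from sequencing read proportions per bin multiplied by bin number.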

This data set covers variants of B1. In words: protein stability index of a GFP-peptide fusion (GPS, HEK-293T) (PSI 1-6); higher = more stable. Particulars: c terminus: a fixed tail appended.
With TYLCERCQPKNLDKERAVLLQRRK, the protein stability index stood at 1.74.

Consider TYLCERCQPTNLDKERAVLLQRRK, for which the protein stability index was 2.29.

Turning to TYLCERCQPANLDKERAVLLQRRK, the protein stability index is 2.28.

Consider TYLCERCQPFNLDKERAVLLQRRK, for which the protein stability index was found to be 2.28.

For the variant TYLCERCQPHNLDKERAVLLQRRK, the protein stability index came out at 1.72.

Consider TYLCERCQPENLDKERAVLLQRRK, for which the protein stability index is 1.99.

Turning to TYLCGRCQPRNLDKERAVLLQRRK, the protein stability index was 2.28.

Consider TYLCVRCQPRNLDKERAVLLQRRK, for which the protein stability index amounted to 3.05.

In the case of TYLCARCQPRNLDKERAVLLQRRK, the protein stability index was found to be 1.91.

Turning to TYLCWRCQPRNLDKERAVLLQRRK, the protein stability index is 2.4.

On to TYLCERCQPRNLDKSRAVLLQRRK, for which the protein stability index worked out at 2.46.

Consider TYLCERCQPRNLDKCRAVLLQRRK, for which the protein stability index came out at 1.45.

With TYLCERCQPRNLDKNRAVLLQRRK, the protein stability index was 1.6.

Regarding TYLCERCQPRNLDKPRAVLLQRRK, the protein stability index came out at 2.12.

Regarding TYLCERCQPRNLDKIRAVLLQRRK, the protein stability index was 2.2.

On to TYLCERCQPRNLDKKRAVLLQRRK, for which the protein stability index was 3.21.

As to TYLCERCQIRNLDKERAVLLQRRK, the protein stability index worked out at 1.91.

For the variant TYLCERCQRRNLDKERAVLLQRRK, the protein stability index was determined as 2.35.

In the case of TYLCERCQERNLDKERAVLLQRRK, the protein stability index stood at 3.09.

Regarding TYLCERCQLRNLDKERAVLLQRRK, the protein stability index turned out to be 2.69.

For TYLCERCQTRNLDKERAVLLQRRK, the protein stability index is 2.81.

Take TYLCERCQHRNLDKERAVLLQRRK: the protein stability index was 1.97.

Consider TYLCERCQQRNLDKERAVLLQRRK, for which the protein stability index stood at 3.16.

Consider TYLCERCQPRNLDKERAVLLQRRH, for which the protein stability index was 2.74.

Turning to TYLCERCQPRNLDKERAVLLQRRA, the protein stability index stood at 1.73.

For the variant TYLCERCQPRNLDKERAVLLQRRQ, the protein stability index amounted to 2.65.

In the case of TYLCERCQPRNLDKERAVLLQRRM, the protein stability index amounted to 1.81.

In the case of TYLCERCQPRNLDKERAVLLQRRT, the protein stability index worked out at 2.28.

On to TYLCERCQPRNLDKERAVLLQRRE, for which the protein stability index came out at 2.25.

TYLCERCQPRNLDKERAVLLQRRP: the protein stability index was 2.38.

Turning to EYLCERCQPRNLDKERAVLLQRRK, the protein stability index came to 1.47.

As to HYLCERCQPRNLDKERAVLLQRRK, the protein stability index was 2.18.

As to RYLCERCQPRNLDKERAVLLQRRK, the protein stability index stood at 2.76.

Turning to IYLCERCQPRNLDKERAVLLQRRK, the protein stability index stood at 1.93.

For QYLCERCQPRNLDKERAVLLQRRK, the protein stability index was found to be 2.14.

As for TYLHERCQPRNLDKERAVLLQRRK, the protein stability index was 3.36.

TYLIERCQPRNLDKERAVLLQRRK: the protein stability index is 1.54.

With TYLFERCQPRNLDKERAVLLQRRK, the protein stability index stood at 2.61.

Take TYLPERCQPRNLDKERAVLLQRRK: the protein stability index was determined as 4.26.

For TYLDERCQPRNLDKERAVLLQRRK, the protein stability index amounted to 4.22.

On to TYLMERCQPRNLDKERAVLLQRRK, for which the protein stability index came out at 3.52.

TYLGERCQPRNLDKERAVLLQRRK: the protein stability index was determined as 3.83.

With TYLNERCQPRNLDKERAVLLQRRK, the protein stability index worked out at 3.9.

As to TYLWERCQPRNLDKERAVLLQRRK, the protein stability index was 2.6.

In the case of TYLTERCQPRNLDKERAVLLQRRK, the protein stability index came to 4.07.

Turning to TYLAERCQPRNLDKERAVLLQRRK, the protein stability index came to 4.43.

With TYLCERCQPRNYDKERAVLLQRRK, the protein stability index amounted to 1.71.

On to TYLCERCQPRNGDKERAVLLQRRK, for which the protein stability index came out at 2.71.

With TYLCERCQPRNDDKERAVLLQRRK, the protein stability index stood at 2.01.

Turning to TYLCERCQPRNKDKERAVLLQRRK, the protein stability index came out at 2.96.

As for TYLCERCQPRNWDKERAVLLQRRK, the protein stability index was determined as 1.61.

Turning to TYLCERCQPRNTDKERAVLLQRRK, the protein stability index was found to be 2.63.

As to TYLCERCQPRNEDKERAVLLQRRK, the protein stability index is 3.2.

Turning to TYLCERCQPRNQDKERAVLLQRRK, the protein stability index was found to be 3.79.

As for TYLCERCQPRNRDKERAVLLQRRK, the protein stability index was 2.02.

For TYLCERCQPRNLDGERAVLLQRRK, the protein stability index was 1.77.

As to TYLCERCQPRNLDCERAVLLQRRK, the protein stability index is 1.93.

Consider TYLCERCQPRNLDPERAVLLQRRK, for which the protein stability index worked out at 1.96.

Consider TYLCERCQPRNLDQERAVLLQRRK, for which the protein stability index is 2.23.

With TYLCERCQPRNLDNERAVLLQRRK, the protein stability index came out at 2.29.

For the variant TYLCERCQPRNLDRERAVLLQRRK, the protein stability index is 2.19.

Regarding TYLCERCQPRNLDVERAVLLQRRK, the protein stability index was 3.34.

As for TYLCERCQPRNLDTERAVLLQRRK, the protein stability index worked out at 3.29.

Consider TYLCERCQPRNLDSERAVLLQRRK, for which the protein stability index came out at 2.51.

Take TYLCERCQPRNLDIERAVLLQRRK: the protein stability index worked out at 1.87.

As for TYLCERCQPRNLDKEVAVLLQRRK, the protein stability index turned out to be 2.27.

Consider TYLCERCQPRNLDKESAVLLQRRK, for which the protein stability index worked out at 1.36.

In the case of TYLCERCQPRNLDKEYAVLLQRRK, the protein stability index turned out to be 1.79.

For the variant TYLCERCQPRNLDKEWAVLLQRRK, the protein stability index is 1.69.

As to TYLCERCQPRNLDKEFAVLLQRRK, the protein stability index was 2.09.

Take TYLCERCQPRNLDKENAVLLQRRK: the protein stability index turned out to be 2.01.

Regarding TYLCERCQPRNLDKETAVLLQRRK, the protein stability index worked out at 2.25.

Take TYLCERCQPRNLDKEEAVLLQRRK: the protein stability index came to 1.92.

Consider TYLCERCQPRNLDKEMAVLLQRRK, for which the protein stability index was determined as 3.23.

As to TYLCERCQPRNLDKEGAVLLQRRK, the protein stability index worked out at 2.32.

TYLCERCQPRNLDKEAAVLLQRRK: the protein stability index came out at 2.49.

On to TYPCERCQPRNLDKERAVLLQRRK, for which the protein stability index is 2.31.

With TYSCERCQPRNLDKERAVLLQRRK, the protein stability index is 2.18.

Consider TYCCERCQPRNLDKERAVLLQRRK, for which the protein stability index amounted to 1.45.

As to TYECERCQPRNLDKERAVLLQRRK, the protein stability index amounted to 3.

Turning to TYRCERCQPRNLDKERAVLLQRRK, the protein stability index was 2.16.

Regarding TYFCERCQPRNLDKERAVLLQRRK, the protein stability index worked out at 1.82.

Turning to TYQCERCQPRNLDKERAVLLQRRK, the protein stability index worked out at 2.42.

For the variant TYACERCQPRNLDKERAVLLQRRK, the protein stability index was 2.33.

Turning to TYKCERCQPRNLDKERAVLLQRRK, the protein stability index was 2.83.

On to TYLCERCQPRNLDKERAWLLQRRK, for which the protein stability index came to 2.2.

Turning to TYLCERCQPRNLDKERAPLLQRRK, the protein stability index was 1.6.

Turning to TYLCERCQPRNLDKERAALLQRRK, the protein stability index is 1.81.

On to TYLCERCQPRNLDKERAMLLQRRK, for which the protein stability index was 2.19.

For TYLCERCQPRNLDKERADLLQRRK, the protein stability index stood at 2.73.

TYLCERCQPRNLDKERAILLQRRK: the protein stability index was 2.68.

Consider TYLCERCQPRNLDKERANLLQRRK, for which the protein stability index worked out at 1.93.

In the case of TYLCERCQPRNLDKERAHLLQRRK, the protein stability index is 2.16.

Consider TYLCERCQPRNLDKERAYLLQRRK, for which the protein stability index was 1.65.
